Source: patent publication US20220177558A1 (INSERM INSTITUT NATIONAL DE LA SANT ET DE LA RECHERCHE M …, published 2022)
Where no end group is shown, it is not given here.

Biological target: T1, Ac-Met11-Tau peptide: {N-alpha-acetyl}MEDHAGTYGLG (human)
T1 construct: Synthetic peptide coated on the ELISA plate; The C-terminal cysteine was added only for KLH conjugation of the immunogen; also called N-alpha-acetyl-Met11-Tau peptide; AcMet11-peptide
T1 peptide: Ac-MEDHAGTYGLG
Experiment: indirect ELISA on coated peptide, positive control

binding result: binds
B1: 2H2D11 antibody (antibody, IgG2a, V domains shown)
VH: EVRLVESGGGLVQPGGSLRLSCATSGFTFTDYYLSWVRQPPGKAFEWLGFIRNRADGYTTNYSASVKGRFTISRDNSQSILYLQMNTLRVEDSATYYCARDNDHYAMDYWGQGTSVTVSS
VL: DVVMTQTPLSLSVTIGQPASISCKSSQSLLYSNGKTYLNWLQQRPGQAPKHLMYQVSKLDPGIPDRFSGSGSETDFILKISRVEAEDLGIYYCLQGTYYPYTFGGGTKLEIK
notes: also called Mab 2H2D11; monoclonal antibody directed against AcMet11-Tau
